Results: US20240327530A1 (ICHNOS SCIENCES, published 2024)

Columns and labels:
[1] = target: T1, Human IL-1RAP, membrane-bound on human cells (HaCaT, dermal fibroblasts, neutrophils, PBMC, whole blood) (human, UniProt Q9NPH3 21-570); experiment: cell-based or functional assay
T1 sequence: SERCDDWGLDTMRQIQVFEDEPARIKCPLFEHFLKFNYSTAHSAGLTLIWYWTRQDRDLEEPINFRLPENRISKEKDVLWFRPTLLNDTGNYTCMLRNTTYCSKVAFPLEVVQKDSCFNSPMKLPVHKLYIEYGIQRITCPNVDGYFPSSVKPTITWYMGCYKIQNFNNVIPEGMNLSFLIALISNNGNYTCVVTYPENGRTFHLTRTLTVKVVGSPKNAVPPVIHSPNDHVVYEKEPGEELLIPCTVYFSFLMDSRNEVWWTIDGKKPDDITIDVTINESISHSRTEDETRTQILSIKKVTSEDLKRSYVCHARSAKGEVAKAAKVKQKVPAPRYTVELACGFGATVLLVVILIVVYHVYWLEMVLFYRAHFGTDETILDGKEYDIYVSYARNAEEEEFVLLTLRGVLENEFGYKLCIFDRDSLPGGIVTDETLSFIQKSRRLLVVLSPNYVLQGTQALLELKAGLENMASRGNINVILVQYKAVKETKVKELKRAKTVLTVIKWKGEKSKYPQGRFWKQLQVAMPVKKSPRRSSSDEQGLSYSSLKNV

[2] = target: T1, Human IL-1RAP, membrane-bound on human …; experiment: flow cytometry on HaCaT cell line, nonlinear sigmoidal regression
Description: (§1) In brief, cells were harvested, counted, and plated at 50,000 cells/well in a 96-well round-bottom plate. The plate was centrifuged at 350 g for 3 minutes and the cells were resuspended in 50 μl of FACS® buffer (PBS (1×)+2.5% FCS+2 mM EDTA+0.05% NaN₃) containing various concentrations (ranging from 50 to 0.00003 μg/ml) of either anti-human IL-1RAP_candidate_1 or Isotype control_5 antibodies. Stained cells were incubated for 30 minutes at 4° C., washed twice with FACS® buffer at 350 g for 3 min and resuspended in […] of a monoclonal anti-human IgG PE-Cyanine7 secondary antibody (Biolegend, 409316) diluted 1/200 in FACS® buffer. Cells were then washed twice and resuspended in 200 μl of FACS® buffer containing SYTOX® Green dead cell stain (THERMO FISHER […]®, S34860) and samples were acquired on a CYTOFLEX® instruments (Beckman Coulter). The cells were gated based on size on FSC vs SSC and analyzed for PE-Cyanine7-geometric mean (geomean) fluorescence intensity using FLOWJO® software. Finally, relative geomean fluorescence intensity was calculated by subtracting fluorescence of anti-human IL-1RAP_candidate_1 per fluorescence of Isotype control_5. As depicted in FIGS. 6A, 6B, 6C, 6D, and 6E, anti-human IL-1RAP_candidate_1 antibody recognizes membrane-bound IL-1RAP expressed on HaCaT cell line and all primary cells. Multiple independent experiments were performed using multiple donors. […]

[3] = target: T1, Human IL-1RAP, membrane-bound on human …; experiment: flow cytometry on human neutrophils, nonlinear sigmoidal regression
Description: as §1

[4] = target: T2, Recombinant cynomolgus monkey IL-1RAP-ECD(S21-E359)-avi-his protein (cynomolgus monkey, UniProt P59822 21-359 (rhesus entry)); experiment: SPR
T2 construct: also called cyno IL-1RAP-ECD-Avi-His; recombinant cynomolgus monkey IL-1RAP-avi-his protein
T2 sequence: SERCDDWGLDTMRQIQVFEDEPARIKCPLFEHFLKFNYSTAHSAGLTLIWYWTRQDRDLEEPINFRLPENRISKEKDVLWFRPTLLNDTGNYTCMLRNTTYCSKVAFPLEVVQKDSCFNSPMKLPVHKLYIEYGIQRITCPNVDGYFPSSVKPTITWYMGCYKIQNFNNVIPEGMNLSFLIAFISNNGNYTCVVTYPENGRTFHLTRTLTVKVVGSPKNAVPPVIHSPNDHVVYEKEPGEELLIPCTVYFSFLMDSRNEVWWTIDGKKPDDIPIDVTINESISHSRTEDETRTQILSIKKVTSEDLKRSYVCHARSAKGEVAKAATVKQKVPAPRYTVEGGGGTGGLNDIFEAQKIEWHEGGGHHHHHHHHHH

[5] = target: T3, Mouse IL-1RAP, membrane-bound on NIH-3T3 cells (mouse, UniProt Q61730 21-570); experiment: cell-based or functional assay
T3 sequence (looked up): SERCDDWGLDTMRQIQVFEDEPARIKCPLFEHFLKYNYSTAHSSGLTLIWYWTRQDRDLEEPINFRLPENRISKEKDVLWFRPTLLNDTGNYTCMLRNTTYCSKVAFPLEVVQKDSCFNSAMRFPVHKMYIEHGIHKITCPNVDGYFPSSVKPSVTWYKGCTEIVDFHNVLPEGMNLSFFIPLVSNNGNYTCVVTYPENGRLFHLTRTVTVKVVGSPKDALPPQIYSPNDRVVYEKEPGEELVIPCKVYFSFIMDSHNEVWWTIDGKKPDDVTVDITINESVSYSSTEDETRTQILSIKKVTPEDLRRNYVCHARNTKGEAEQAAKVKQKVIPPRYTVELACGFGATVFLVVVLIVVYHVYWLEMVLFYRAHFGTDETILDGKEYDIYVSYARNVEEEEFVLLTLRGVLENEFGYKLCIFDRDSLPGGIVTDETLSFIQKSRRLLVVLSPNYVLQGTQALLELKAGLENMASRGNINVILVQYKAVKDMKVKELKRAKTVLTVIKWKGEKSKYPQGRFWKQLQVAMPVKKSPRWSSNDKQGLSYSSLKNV

B1: Anti-IL-1RAP-C8-RecC-ES-IgG1LALA (antibody, V domains shown)
VH: QVQLVQSGAEVKKPGSSVKVSCKASGSPAEPYAIQWVRQAPGQGLEWMGYIIPSLGGYDYAQKFQGRVTITADESTSTAYMELSSLRSEDTAVYYCARGQTLYESGRQFDIWGQGTLVTVSS
VL: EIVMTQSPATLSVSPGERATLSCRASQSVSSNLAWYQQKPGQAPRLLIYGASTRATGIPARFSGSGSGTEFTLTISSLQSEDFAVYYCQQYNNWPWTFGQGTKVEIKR
notes: also called ISB 880-C8-recC-ES
- human whole blood, IL-1alpha stimulation, IL-6 release, mean EC50 of inhibition [1]: 9.5 nM
- human whole blood, IL-1alpha stimulation, IL-8 release, mean EC50 of inhibition [1]: 14.2 nM
- human whole blood, IL-1alpha stimulation, MCP-1 release, mean EC50 of inhibition [1]: 11.1 nM
- human whole blood, IL-1alpha stimulation, MIP-1alpha release, mean EC50 of inhibition [1]: 15 nM
- human whole blood, IL-1alpha stimulation, MIP-1beta release, mean EC50 of inhibition [1]: 89 nM
- human whole blood, IL-1beta stimulation, IL-6 release, mean EC50 of inhibition [1]: 8.8 nM
- human whole blood, IL-1beta stimulation, IL-8 release, mean EC50 of inhibition [1]: 24.7 nM
- human whole blood, IL-1beta stimulation, MCP-1 release, mean EC50 of inhibition [1]: 17.7 nM
- human whole blood, IL-1beta stimulation, MIP-1alpha release, mean EC50 of inhibition [1]: 16 nM
- human whole blood, IL-1beta stimulation, MIP-1beta release, mean EC50 of inhibition [1]: 53.3 nM
- Kd [2]: 0.75 nM
- Kd [3]: 1.67 nM

B2: Anti-IL-1RAP-C3-A3 mmIgG2a LALA (antibody, V domains shown)
VH: EVQLLESGGGLVQPGGSLRLSCAASGFIFSHYGMSWVRQAPGKGLEWVSAISYDGEGTLYADSVKGRFTISRDNSKNTLYLQMNSLRAEDTAVYYCARFRYYTAFDYWGQGTLVTVSS
VL: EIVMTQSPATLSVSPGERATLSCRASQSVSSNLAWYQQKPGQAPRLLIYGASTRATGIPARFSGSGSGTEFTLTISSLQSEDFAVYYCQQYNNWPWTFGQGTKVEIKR
notes: also called anti-IL-1RAP-C3-A3 mouse IgG2a LALA
- binding result [4]: no binding
- hIL-33-stimulated NIH-3T3, mIL-6 release, EC50 of inhibition [5]: 1.02 nM
- mIL-1b-stimulated NIH-3T3, mIL-6 release, EC50 of inhibition [5]: 3.14 nM
- mIL-36s-stimulated NIH-3T3, mCXCL-1 release, EC50 of inhibition [5]: 1.68 nM
